Results published in PMC11519390.

B1: HA-tagged wildtype Drosophila CYRI [Drosophila] / GST-tagged constitutively active Rac1 [Drosophila] (parent)
chain 1: MGKLLSLLSRDDSNCCAAKSYDVFLDFENAAPTETERAVYDEVERVLRESEVVLDEIQIYRGAGKEIREAIADPSPEVTAKAWAAVLPLVNKLKRCYEHSMELDKIVPKLLGQLVGGKLNPTQHLETQQALVKQLAEILEFVLKFDEYKMKTPAIQNDFSYYRRIVSRQRVDSTENMLVSTELANRMSLFYAHATPMLKVLSEATSKFVNDNADDVQNTTETLGTMAKVCLRMLENPKLLQQIEREDTKMLVLRVMVGLVILYDHVHPEGAFVRGAHVDVKGCVRLLQAQPAIKAEPLLNALRYTTKHLNGENTPKNIQRLLAA
chain 2: not shown

Variants of: B1
Assay: GST pull-down, western blot quantification
Conditions: with GST-tagged constitutively active Rac1 Q61L [Drosophila]; Signals normalized to loaded input (1% of the starting lysate material); three independent experiments; read off a plot

response (% bound input) | Variant
0.015 | chain 1 R163D R164D
